The conditions of data set [1]: literature, Chang et al.; cited from earlier work.
For data set [2], the system named is neurotoxic 12 kDa ApoE fragment. As to the kind of experiment: Western blot analysis of 12 kDa ApoE fragment production in rat hippocampal neurons expressing full-length human ApoE4. It counts as cell-based. The note with it: rat hippocampal neurons infected with AAV-DJ full-length human ApoE4; treated at 11 DIV, collected at 14 DIV; concentration dependent; FIG. 14A. As to the method:
(§1) Cell culture: The dissected hippocampi from fetuses obtained on embryonic day (E) 18 from timed pregnant Wistar rats (Charles River Laboratories) were digested using trypsinization and mechanical dissociation. The dissociated neurons were seeded at 1.0×10^5 cells/well in 24-well plate (Falcon). Infection of AAV-DJ with full-length human ApoE4 was performed at 7 days in vitro (DIV). 4-{4-[2-(3-methyl-4-oxo-3,4-dihydro-phthalazin-1-yl)-acetylamido]-benzyl}-piperazine-1-carboxylic acid tert-butyl ester (hereinafter also referred to as PH-002) (Merck) was treated at 4 days after infection (11 DIV). Sample collection for western blot and cytotoxicity analysis was performed at 7 days after infection (14 DIV).
Western blot analysis: Cells were lysed by RIPA buffer (50 mM Tris-HCl pH 7.6, 5 mM EDTA, 1 mM EGTA, 1% NP40, 0.25% sodium deoxycholate, 0.1 M NaCl, 0.5 mM PMSF) containing complete (EDTA-free) protease inhibitor cocktail (Roche) and PhosSTOP protein phosphatase inhibitor (Sigma), and sonicated. Sample Buffer Solution with Reducing Reagent (6×) (Nacalai Tesque) was added before SDS-PAGE. For SDS-PAGE, XV PANTERA MP Gel (DRC) 15% was used. For transfer, Trans-Blot Turbo (BIO-RAD) was used. For immunoblotting, iBind Western Systems (ThermoFisher Scientific) was used together with anti-ApoE PA5-27088 antibody (ThermoFisher Scientific). For detection, Fusion FX7 (Vilber Lourmat) was used.

Another data set concerns rat hippocampal neurons. As to the kind of experiment: CytoTox-Glo Cytotoxicity Assay of treated rat hippocampal neurons. It counts as cell-based. To be noted: conditioned medium of treated rat hippocampal neurons, 14 DIV; FIG. 14B. The protocol: as §1
Cytotoxicity analysis: Cytotoxicity of treated compound was evaluated by CytoTox-GIo™ Cytotoxicity Assay (Promega). In brief, 50 uL of conditioned medium and 50 uL of prepared CytoTox-GIo™ Cytotoxicity Assay reagent were mixed in 96-well white-walled plate (Sumitomo Bakelite). After incubation at room temperature for 15 min, luminescence was measured by SpectraMax iD5 (Molecular Devices).

Data set [3] has as its system rat primary hippocampal neurons. As to the kind of experiment: Mitochondrial respiration measurement (spare respiratory capacity) in AAV6-infected rat hippocampal neurons. The note with it: 7 days after AAV6 infection (14 DIV), FIG. 13B. It counts as cell-based. As to the method: For assays using rat hippocampal neurons, the dissected hippocampi from fetuses obtained on embryonic day (E) 18 from timed pregnant Wistar rats (Charles River Laboratories) were digested using trypsinization and mechanical dissociation. The dissociated neurons were seeded at 1.5×10^4 cells/well in Seahorse XF96 cell culture microplate (Agilent Technologies) for mitochondrial respiration measurement or 1.0×10^5 cells/well in 24-well plate (Falcon) for Western blot analysis. Infection of AAV6 with full-length human ApoE4 or identified ApoE fragments (198-299, 199-299, 200-299) was performed at 7 days in vitro (DIV). Measurement of mitochondrial respiration or sample collection for Western blot analysis was performed at 7 days after infection (14 DIV).
(§2) Mitochondrial respiration measurement: Real-time measurement of oxygen consumption rates (OCR) was performed using an Extracellular Flux Analyzer XFe96 (Agilent Technologies). Before measurement, the culture medium was replaced by 37° C. pre-warmed XF Base Medium (Agilent Technologies) containing 10 mM sodium pyruvate (Sigma), 10 mM D-glucose (Sigma), 2 mM glutamine (Sigma). The pH of the measurement medium was adjusted to 7.4. The culture plates were incubated at 37° C. for 60 min prior to the assay. For analysis of mitochondrial function, XF Cell Mito Stress Test Kit (Agilent Technologies) was used. Following measurement of basal OCR, mitochondrial complex inhibitors were injected sequentially into each cell. The inhibitors were used at the following concentrations: oligomycin 1 μM; carbonyl cyanide 4-(trifluoromethoxy)phenylhydrazone (FCCP) 0.25 μM for Neuro2A cells, 2 μM for rat hippocampal neurons; rotenone/antimycin A 0.5 μM. OCR values were automatically calculated, recorded and plotted by the XFe96 software. Spare respiratory capacity was measured as (FCCP respiration—basal respiration).

The next data set relates to Neuro2A cells. Briefly: Mitochondrial respiration measurement (spare respiratory capacity) in vector-transfected Neuro2A cells. The note with it: Neuro2A cells expressing the fragment; FCCP respiration minus basal respiration; FIG. 13A. It counts as cell-based. As to the method: Cell culture: Neuro2A cells (ATCC) were seeded at 5.0×10^4 cells/well in a 24 well plate (Falcon) and cultured in D-MEM High Glucose (WAKO) containing 10% fetal bovine serum. Transfection of pAAV-CMV vectors encoding human ApoE4 (full-length) or the identified ApoE fragments (198-299, 199-299, 200-299) was done using Lipofectamine LTX and Plus Reagent (Invitrogen) on 1 day after seeding. 2 days later, vector-transfected cells were collected for Western blot analysis or seeded again at 2.0×10^4 cells/well in a Seahorse XF96 cell culture microplate (Agilent Technologies) 4 hours before mitochondrial respiration measurement.
as §2

The subject of the next data set is Aβ. To be noted: literature, Pillot et al.; artificially-generated fragment; cited from earlier work.

For the molecule ApoE4(1-299): full-length ApoE4, the “mitochondrial dysfunction and neurotoxicity” value in data set [1] is “did not bring about these effects”.
In the case of `Cn1nc(CC(=O)Nc2ccc(CN3CCN(C(=O)OC(C)(C)C)CC3)cc2)c2ccccc2c1=O` [PH-002, 4-{4-[2-(3-methyl-4-oxo-3,4-dihydro-phthalazin-1-yl)-acetylamido]-benzyl}-piperazine-1-carboxylic acid tert-butyl ester], the “amount of neurotoxic 12 kDa ApoE fragment” value in data set [2] was “reduction in the amount of neurotoxic 12 kDa ApoE fragment”. For the same molecule, the cytotoxicity entry in the data set on rat hippocampal neurons is recorded as “no cytotoxicity”.

B1: 198-299: C-terminal fragment consisting of amino acids 198-299 of human ApoE (SEQ ID NO: 3) (protein)
chain: LAGQPLQERAQAWGERLRARMEEMGSRTRDRLDEVKEQVAEVRAKLEEQAQQIRLQAEAFQARLKSWFEPLVEDMQRQWAGLVEKVQAAVGTSAAPVPSDNH
Take B1: the spare respiratory capacity entry (in data set [3]; in the data set with Neuro2A cells) was “reduction in spare respiratory capacity” each time.

B2: 199-299: C-terminal fragment consisting of amino acids 199-299 of human ApoE (SEQ ID NO: 2) (protein)
chain: AGQPLQERAQAWGERLRARMEEMGSRTRDRLDEVKEQVAEVRAKLEEQAQQIRLQAEAFQARLKSWFEPLVEDMQRQWAGLVEKVQAAVGTSAAPVPSDNH
Turning to B2, the spare respiratory capacity entry (in data set [3]; in the data set with Neuro2A cells) was “reduction in spare respiratory capacity” throughout.

B3: 200-299: C-terminal fragment consisting of amino acids 200-299 of human ApoE (SEQ ID NO: 1) (protein)
chain: GQPLQERAQAWGERLRARMEEMGSRTRDRLDEVKEQVAEVRAKLEEQAQQIRLQAEAFQARLKSWFEPLVEDMQRQWAGLVEKVQAAVGTSAAPVPSDNH
Regarding B3, the spare respiratory capacity entry (in data set [3]; in the data set with Neuro2A cells) was “reduction in spare respiratory capacity” throughout. Moreover, the “inhibition of the fusogenic properties of Aβ” value in the data set on Aβ is listed as “able to inhibit the fusogenic properties of Aβ”.

The record behind these values is patent US20220251171A1, “APOLIPOPROTEIN E FRAGMENTS” (EISAI R&D MANAGEMENT CO., LTD., priority 2019, published 2022).
